Reference: the supplement of paper PMC9170038

Test system: MS2 coat protein
Test: apparent KD of MS2 coat protein; designed switch direction (-1 OFF switch, 1 ON switch): -1; higher = weaker reporter binding
Method in brief: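 Designed RNA switches were transcribed on Illumina chips by stalled E. coli RNA polymerase and titrated with SNAP-549-labelled MS2 coat protein from 0.7 or 1.5 nM, doubling to 3 µM. Step length ran from 0.8–1.5 h at the lowest concentration to 10–20 min at the highest. The apparent KD is the median over clusters for each design, from curve-fitted normalised cluster fluorescence.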

[1] = input ligand: microRNA oligo, concentration not stated
[2] = Eterna round: R95, input ligand: FMN 200 uM
[3] = Eterna round: R95, input ligand: microRNA oligo, concentration not stated
[4] = Eterna round: R95, input ligand: none

Row | Sequence | apparent KD of MS2 coat protein (input ligand: FMN 200 uM) | apparent KD of MS2 coat protein (input ligand: none) | apparent KD of MS2 coat protein [1] | apparent KD of MS2 coat protein [2] | apparent KD of MS2 coat protein [3] | apparent KD of MS2 coat protein [4]
1 | CUUUCGUGAGGAUAUGAAGCUUCGAUCGUGAGAUCGAGGCUACAGAAGGCACAUGAGGAUCACCCAUGUUCCUC [salish99_ex4_r4_217] (Eterna round: R97, puzzle: Exclusion 4) | 666 nM | 31.9 nM | – | – | – | –
2 | CAGUACUGAGGAUAUACAUGAGGAUCACCCAUGUGUUCCAGCUAGGAAACUAGCACUUGUAGAAGGCAGUACUG [Ex3: 830] (Eterna round: R96, puzzle: Exclusion 3) | 458 nM | 26.7 nM | 21.6 nM | – | – | –
3 | UACAUGAGGAUCACCCAUGUUUUGUCGUGUAUGGUAUUUAUCUAGGAUAUCAUUUUAUUUAGGUAUGAGAAGGAGAAUAUUAAU [JMF's solution 93] (Eterna round: R96, puzzle: Exclusion NG 3) | – | – | 23.9 nM | – | – | –
4 | AUGAGGAUAAGAAAGUGAAGAUAGAGCGUACCUUAUGGAACAUGAGGAUCACCCAUGUAGCUUUUUGCUCGUCUUAU [JR_SV3TOV2_Sub031] (puzzle: Sensor v3, turn-off variant 2) | – | – | – | 19.9 nM | 49.5 nM | 14.7 nM
5 | GCGUACUGAGGAUAUACAUGAGGAUCACCCAUGUGAAGAAGAAAGUAGUGAUGGUUAAGUAGAAGGCAGUAUGC [JR_Ex3_Sub063] (Eterna round: R97, puzzle: Exclusion 3) | 411 nM | 113 nM | – | – | – | –
6 | UAUUUUGCAAGCAGAUCCCACAUGAGGAUCACCCAUGUGCUCGUCUUAUAAGGUUCUGUGACGAUAGUCACGGUACC [mod -Eli mod] (Eterna round: R97, puzzle: Sensor, turn-off variant 1) | 45.9 nM | 46.1 nM | – | – | – | –
7 | UUUAGUGGUAAGGAUAUCCUUGAGAAAGAAAGAGGAGAAGGUACCACAUGAGGAUCACCCAUGUGGCUCUUUUA [jl-ex6-4.58 Nando mod] (Eterna round: R97, puzzle: Exclusion 6) | 32.7 nM | 18.2 nM | – | – | – | –
8 | GUCAGCUCGUGAGGAUAUAUAUACAUGAGGAUCACCCAUGUAAGAUCAGCACUUCGGUGCAGUAUAUAGAAGGCACGAGCUGAC [ENG2/13-A1] (Eterna round: R96, puzzle: Exclusion NG 2) | 46.1 nM | 29.1 nM | 21.6 nM | – | – | –
9 | CGUAAGCUAGGAUAUGCUUUGGGAAAGCAUUCCUUCGAUAAACUUGAGGAUCACCCAAGUAGAAGGAGCUUACG [salish99_ex2_r4_010] (Eterna round: R97, puzzle: Exclusion 2) | 24.8 nM | 16.8 nM | – | – | – | –
10 | AGGGAUAAAGGAUAUACAUGAGGAUCACCCAUGUUGAGGAAAGUUAGAUGAGGAGGAAGUAGAAGGUUAGGCGA [JR_Exclu3_Sub086] (puzzle: Exclusion 3) | – | – | – | 31.1 nM | 31.7 nM | 40.4 nM
11 | ACACACACAGGAUAUCUUCCGCAUGACAUGAGGAUCACCCAUGUGUGCAUGCCCAAAAGUAGAGAAGGGUGUGUGU [eternacac ex5r4 #2] (Eterna round: R97, puzzle: Exclusion 5) | 26.2 nM | 29.2 nM | – | – | – | –
12 | ACAUGACCGCUAGGAUAUAGAUGACAUGAGGAUCACCCAUGUUGUCCCAUGUUGACGAUCACCGACUAGAAGGAGCCACCCAUG [ExNG2 5th] (Eterna round: R96, puzzle: Exclusion NG 2) | 53.4 nM | 52.5 nM | 34.6 nM | – | – | –
13 | AUAAAGAAUGUUAGGAUAUUGGUGAAUAGGCUGACUAAGAAGGAACAUGAGGAUCACCCAUGUAACAUGGAAAA [Tiinzaesqu] (puzzle: Brourd's mod of Exclusion 4) | – | – | – | 68.8 nM | 24.5 nM | 33.6 nM
14 | AUGUUGCGAGGAUAUAUUUACUUGUUGUUAUUUGGUUGGGAACAUGAGGAUCACCCAUGUAGAAGGUGCAUAAC [JR_Ex2_Sub035] (Eterna round: R97, puzzle: Exclusion 2) | 58.9 nM | 62.5 nM | – | – | – | –
15 | AGUACUAACACGAUAGUGUUAGUACAAUAAGCUUGUGUUACAUGAGGAUCACCCAUGUCCUCAUAAGCUCGUCUUAU [Mat - Sensor v3 - Turn-off var 2 - D54] (puzzle: Sensor v3, turn-off variant 2) | – | – | – | 105 nM | 30.4 nM | 129 nM
16 | AGUUGUAAAGAGGAUAUCCAUCCCGGCAUCCAUGGAGAAGGUUUAACAUGAGGAUCACCCAUGUCAUGAUCCUC [Eternabot (L2) Solution 3] (Eterna round: R97, puzzle: Exclusion 6) | 824 nM | 692 nM | – | – | – | –
17 | GGCGUCGUGUAGGAUAUGAAUUGAAAGGCUUCGUCAGAAGGGCACACAUGAGGAUCACCCAUGUGACAGCUGAG [Eternabot (L1) Solution 78] (Eterna round: R97, puzzle: Exclusion 6) | 20 nM | 19.9 nM | – | – | – | –
18 | GCCGUGUCAGGAUAUCGGCGGCUAUAAGUGUACGUACCUUUCGAGAAGGGACAUGAGGAUCACCCAUGUAAAUC [Eternabot (L1) Solution 25] (Eterna round: R97, puzzle: Exclusion 4) | 29.9 nM | 28.9 nM | – | – | – | –

Row | Sequence | apparent KD of MS2 coat protein (input ligand: FMN 200 uM) | apparent KD of MS2 coat protein (input ligand: none) | apparent KD of MS2 coat protein [1] | apparent KD of MS2 coat protein [2] | apparent KD of MS2 coat protein [3] | apparent KD of MS2 coat protein [4]
19 | GGCAUGUAAGGAUAUCUAUCGGUGAGAAAACCAAUUGGGCAAGAGAAGGUACAUGAGGAUCACCCAUGUGGACC [Eternabot (L1) Solution 9] (Eterna round: R97, puzzle: Exclusion 4) | 135 nM | 44 nM | – | – | – | –
20 | AAUAAGCUAGGAUAUACAUGAGGAUCACCCAUGUGAGGGCACGGCCGGCGCGUUUCCGGUAGAAGGAGUCAUAA [Exc;s3-VII] (puzzle: Exclusion 3) | – | – | – | – | 33.2 nM | –
21 | GUAAUUCGAGGAUAUGCCCAUCUAAACAUGAGGAUCACCCAUGUGCGCAUGUUUACCAUCGCAGAAGGCGAGCUGC [Eternabot (L1) Solution 31] (Eterna round: R97, puzzle: Exclusion 5) | 39.3 nM | 25.5 nM | – | – | – | –
22 | UUUCUGUGAGGAUAUCAGUAGUAAAUAAAUAAAAUUACUACUGAGAAGGCACAUGAGGAUCACCCAUGUUCCUU [salish99_ex3_r3_093] (Eterna round: R96, puzzle: Exclusion 4) | 35.1 nM | 16.5 nM | 12.9 nM | – | – | –
23 | GCGGACUAGAACGUGAGUUCUGAGACAUGAGGAUCACCCAUGUAGGAUAUCGAUUCGUUUCGAAUCGAGAAGGGCAUAGUCCGC [JL denovo 12] (Eterna round: R96, puzzle: Exclusion NG 3) | 21.3 nM | 20.3 nM | 14.2 nM | – | – | –
24 | AAUAACAGAGGAUAUACUAUUUUAUGUAUUUAUUAUUUUAAACAUGAGGAUCACCCAUGUAGAAGGCUGAUUGA [JMF 70] (puzzle: Exclusion 2) | – | – | – | – | 28.5 nM | –
25 | UUUUUAUAUGAAGGAUAUACUUAACAUGAGGAUCACCCAUGUGGUGUUGUGAGUGAGUGAGUUUAGUAGAAGGUCAAUUAGCUU [JMF's solution 100] (Eterna round: R96, puzzle: Exclusion NG 2) | 330 nM | 342 nM | 185 nM | – | – | –
26 | CCUCGACGGUAGGAUAUCGUCAAACUAUUGUGAUGAGAAGGACUGACAUGAGGAUCACCCAUGUUAACGUGAUG [Exclusion 6 - 7:a] (puzzle: Exclusion 6) | – | – | – | – | 14.8 nM | –
27 | GUGCGGUGAGGAUAUACGUAGGUACAGAUCUGUGUGUUCCUACAUGAGGAUCACCCAUGUAGAAGGCAUGGCAC [LRO-Excl2-12] (puzzle: Exclusion 2) | – | – | – | – | 38.4 nM | –
28 | GUGUACGGAGGAUAUAUAUGGGCAGGCUGACCUGCAGCUUCACAUGAGGAUCACCCAUGUAGAAGGCUGUGCAC [JL-ex2-2.07 Brourd mod] (puzzle: Exclusion 2) | – | – | – | – | 27.1 nM | –
29 | UUGAAGUCAGGAUAUCGUUAAUUUAGUUGUUUGUAUUAGUUCGAGAAGGGACAUGAGGAUCACCCAUGUAAGUA [Ex4 #47] (Eterna round: R97, puzzle: Exclusion 4) | 32.7 nM | 40.5 nM | – | – | – | –
30 | CCGACAUGAGGAUAUCCAUCUGGAUCAGACUAGAUCCUGAUGGAGAAGGUACAUGAGGAUCACCCAUGUUACGG [Eli 4x 4.46] (Eterna round: R97, puzzle: Exclusion 4) | 372 nM | 330 nM | – | – | – | –
31 | GUUGACUGAUGAGGAUAUUCAUAAGAAUGGGCCUUGGUUUUACAUGAGGAUCACCCAUGUUGACAGAAGAAGGCAUCAGUCUGA [Eternabot solution 28] (Eterna round: R96, puzzle: Exclusion NG 2) | 659 nM | 109 nM | 120 nM | – | – | –
32 | AAGAGGUCAGGAUAUUGGGCGGAAAGGGAAAGGAAAGGGCCCAAGAAGGGACAUGAGGAUCACCCAUGUAAGAA [Excls4-I] (puzzle: Exclusion 4) | – | – | – | 38.5 nM | 33 nM | 35.4 nM
33 | UGGUAACAUGAGGAUCACCCAUGUCAGGAUAUCAUGAAGAGGAGAGGAGAGGAGAGGAUGAGAAGGGACUAUAU [Excluse me! 13 - Jieux - Exclusion 1] (puzzle: Exclusion 1) | – | – | – | 39 nM | 30.4 nM | 38.4 nM
34 | AUCAGCUCGUGAGGAUAUAUAUUAACAUGAGGAUCACCCAUGUAAGAUCAGCUUCGGCAGUUAAUAUAGAAGGCACGAGCUGAU [ENG2/14-A2] (Eterna round: R96, puzzle: Exclusion NG 2) | 151 nM | 114 nM | 98.8 nM | – | – | –
35 | UAUUCACAUGAGGAUCACCCAUGUCAGGAUAUAGAAGCGUAGUCCGCAAGAAAGCUUACUAGAAGGGACGUAUU [EX1 B.22] (Eterna round: R97, puzzle: Exclusion 1) | 18.8 nM | 18.5 nM | – | – | – | –
